Source: the DeepSol protein solubility set

Experiment: soluble on expression in E. coli; label from the status in PepcDB or PDB records

Q: For “CSKPETNVVAQDGSTSAAAAQVETQTAESRYLALVDGYFKDYLKLEPIYATFVGVNDYNTQFGGDLTEEYLKARHDLNTRYLAQVKTIDLDELPADLQLSYSLFVYDREMALVDETYPSRFMPISQFYSTVITMVQLGSGESAQPFNTVQDYRNWEQRVNGFIDWIKLAQHRMDEGIASKVVLPRVLVERIIPQLDAMLTTDASQSIFYSPITHFPEGFSAQDKAELTASYQAMISERLVPTLTGLRDYFKQTYLPKSRATDGWSGLPNGKAWYQHLANSHTTTTMPVDEIHQIGLSEVARILSEMDKVREQVGFKGDLKAFFASLSSEPQYFYSDRQGLIDGYMALKDKINLVLPQYFNVMPKADYVVKPVESFREQSAAGASYEAPAVDGSRPGVFYINTYNLKAQPKWGMTTLSLHEAAPGHHFQIAIKQELTGVPEFQRFSGYTAFEEGWALYAEYLGIEMGLFSDPYQYFGKLSDEMLRAMRLVVDTGLHAKGWSREQAIQYMKDNSPMAESDIVAEVERYMAIPGQALSYKVGQLKILALRERAEKALGDKFDLKAFHDQILTSGSLPMAVMEQKIDRWIAANK”, which “soluble on expression in E. coli” value is on record?
A: The value was “not soluble”.

Q: Which “soluble on expression in E. coli” value does the source give for “DLFVVEKPPSLPVHTCGQYAIHTVLGQLRVNEGRTGLRVLHRLDRATSGVLLFAKNYETDLEFKTTLKQGEWSKEYICKVDGVFPDEEQVCEQPIGPLVISMGIQCVRPDGKDAKSRFRKLWSDGTQSVVQVHIETGRTHQIRVHSQF” here?
A: The value was “not soluble”.

Q: For “MENGIGYIPLLNVSHKHGGTHFYRKNSGTCDLCEKNFKTSEELVEHKKNYPRADVEKALSVYKEKDTIYKCLQCSGEFRLKEDFDYHQELHKRLGELKSASSNKSEANKDDESDIDSSFEIIEN”, which “soluble on expression in E. coli” value is on record?
A: Its value is “not soluble”.

Q: Which “soluble on expression in E. coli” value does the source give for “RGRLRIFFGFAAGVGKTYGMLTEAHELLMMGKHVVVGYIEPHDRPDTNRLLEGLPQIPPKNIFYKQMVLTEPDIDQIIQQKPEIVLIDELAHSNAEGSRNRKRYQDIDELLNAGIDVFTTVNVQHIESLNDIVEEVTGIEVKETVPDTFLRQATIRVIDVEPDELIERLEQGKIYANENAKRALKNFFIPQKLDQLRGLAIQRASDHINRISGKTIG” here?
A: Its value is “not soluble”.

Q: For “MSLSDRVKKIESFTLTLPRETPYLGKPRPGEEPNGRGYLVRKANRTVYPTFDRSVLVRIETENGAVGWGETYGLVAPRATMEIIDDLLADFTIGRDPFDAAAIHDDLYDLMRVRGYTGGFYVDALAAIDIALWDLAGKLAGLPVCKLLGGQRRDRIAAYISGLPEDTRAKRAELAAAWQAKGFSSFKFASPVADDGVAKEMEILRERLGPAVRIACDMHWAHTASEAVALIKAMEPHGLWFAEAPVRTEDIDGLARVAASVSTAIAVGEEWRTVHDMVPRVARRALAIVQPEMGHKGITQFMRIGAYAHVHHIKVIPHATIGAGIFLAASLQASAALANVDCHEFQHSIFEPNRRLLVGDMDCLNGEYVVPTGPGLGVEPSKEAQGLLKKHEGHHHHHH”, which “soluble on expression in E. coli” value is on record?
A: Its value is “soluble”.

Q: For “MGSDKIHHHHHHMTSIVFNGSYITKKNTGVGVVSKDLLYSLSANKITTLIPKDLDIKGDIYIPNNLSPGTGLKSHFRRLYWLQNSVPKLMNNLNAEYFLSPLLEAPLFSNIKSIVLAHDLIPIRYPSVSFLTLYYLIYIPLILKQSKLILCNSVSTANDLHRFYKVPMHKLFPIKLGFNNKKYYPIKKIRKKFFLIIGRHNPHKNLRRVIKAFAYSKINDYKLIFVGPFDKRHTPSLLKLIDKHNIRHLCVWKGWIDDDEKLSLLNECHALIIASLWEGFGLPALEAMACGTPVIASDRGALREVMGNYGYFINPFNIQSIACAMNAVINDKKCFENALQEGPSRAESFNWLDTARTIEKIIQEID”, which “soluble on expression in E. coli” value is on record?
A: Its value is “not soluble”.

Q: For “MKFTSLLTAGALASTLVSPAIMAADTASASLSDAQKKEIEKVIHDYLINNPEVLLEASQALQQKQQQNMQQQAQAAIQENAEQVFQGKLTTVGNPKGNVTLVEFFDYQCIHCKKMASTIENLVKKDSGLRVIYKEFPIFGKTSDLASRVALAAGMQGKYQAMHNALITIDKRLDEKTVMDAAKSIGLDMQKLKKDMDSQEVTDILDANRQLAEKLHLMGTPAFIIGSTPDGQYKKGSEISFIPGATSEQSLRELIKKAAGN”, which “soluble on expression in E. coli” value is on record?
A: The value was “not soluble”.

Q: With “MSLALITLRQRNNKVEVRVFDTGIGIDADKQKAIFTDFYRIQDSDEAGVGLGLGVVRRLTEQMHATIDVSSVKRKGSCFILNMRIGSPVTESNVTFNKVKQTLSGLNVLCVDDKNENLDALETLLTRWEVNVVMANTYESALTLLASNKHPSPDVLLIDYQLDKDQDGLSLIKDIKAQVGKHIPSAIVTALQDQELKETCLSQGIQFLNKPLKPAKLRALLQSLAKQKSEGHHHHHH” as the sequence, how does the “soluble on expression in E. coli” value read?
A: The value was “not soluble”.

Q: With “MVQSCSAYGCKNRYDKDKPVSFHKFPLTRPSLCKEWEAAVRRKNFKPTKYSSICSEHFTPDCFKRECNNKLLKENAVPTIFLCTEPHDKKEDLLEPQEQLPPPPLPPPVSQVDAAIGLLMPPLQTPVNLSVFCDHNYTVEDTMHQRKRIHQLEQQVEKLRKKLKTAQQRCRRQERQLEKLKEVVHFQKEKDDVSERGYVILPNDYFEIVEVPA” as the sequence, how does the “soluble on expression in E. coli” value read?
A: The value was “soluble”.

Q: Which “soluble on expression in E. coli” value does the source give for “MAHHHHHHMSMKGSKNMLSPLVGNIYNNVYDHKELKMKSINEQNNMGSNNYNINYVNNNNSTLSNNNHSKQNLCYNNFSSHSPSINKDSIHEEKKNNFYEQHNYIDENATHHTMEEENYKNFKNSKNYEHTIDEDVMQNEYSNIIKDNHLKKKKKKKNIHHLNNKDINNTNLNYETNEQVLIDLPKNHLLNKLTTSIIHSINPHLISEYTHEDITKRTNKISTLKKKKKKKKIEREEIYESDVDNTNGEDNTNDVDNTNDEDNTNDEDNTNDGDNEQIHYHKQFDDQIQKQKNKQNKQKKEYKEFDVYETKGYIPLSNEHKQNKSVCFLDNHVKYYTQQNNVPYEKNIIYENNLNDHQAHSYYNNTLNQFTPNSDILNYNNYINKEYIQGIYNTNNYNIKQDSVYEPNEQVMFMSPQEEKYIYMNASPNNIIRNNDMVFYSGQLDNEQMNININNNNNINNNDNNINSSSSVNDGCFNLHLNNMNNIFNTCTNTQNKQKTHKSFFCNSSAKNVINNENNVKNNKTEILIYKNDKTNNYQNNNQTKQNIQSNNHYNNNNNNNGNHINKFRFFTPTSNNVFVRTRSLTPNTYQKKKKNSFFACSPLKDINLNRQKSLPPQLYTTQDITQPIYTHDISYNLSNKNNIIQNDPYNNIQNITTTLSYPLVNSNFVHLYPYQNSNTNNQIKKIENFNVSKNYMNESSTQTSTETSSKSSKDTSLWNTQIHLLNEKIKNMKTKMENITKEKNEVNELCKMYKVIKNHINVNV” here?
A: Its value is “not soluble”.

Q: Which “soluble on expression in E. coli” value does the source give for “MERSLYSPDLRIPPANIHNNHLKIDTDRKIRFAITHPEIKKAKGTIVILESYANALEEYFLPMNEISNRGFYTAIFDWFGREESQPDKQKQSRYNYFNINNDINDLNEFLKNIVYCNCPPPYYMLTYGMGGLIALSGLDLINHKFNKMLCISPLFAPFGNKTNSFQHKLTQLLSDIGLGFLPAKGGEKLKQKSTQFMRINEAALSSDFLIKRPTSRWMASVLNAIDSVKKNILNGHLEIPTLFILANQNNIANNIEIRQLCQYTHLTDSITITGAELDTIMHEESYQKQFWIAFDAFIRG” here?
A: The value was “not soluble”.

Q: With “MGSDKIHHHHHHMIGDEPIRIRQLQALNILAESGTMSLTAKAMNISQPAVSRLLSDLSKELGYPLFSRSGRRLTLTREAQYLLPEIQRIFGAMGQIRNLRQNIQDGTSGHLKIACLPGFSTSHLPGVVADFLAARPKTTLTIEPDRPERILDWVIGEQYDCGITDGFRSHHALDSKTIPIRCVCIFPEGHPLEAKSVIHPEDLAGERIAHDRFGSEFYLRLRDILDAEGIAMDNFIETRQFTCACELVSKGVCVSVVSELDAQEYIGKGVSFRPFSANITHQLSLVWPRHTPTSILTLEFLGLFEKSLEPYAMTET” as the sequence, how does the “soluble on expression in E. coli” value read?
A: The value was “not soluble”.

Q: Which “soluble on expression in E. coli” value does the source give for “MSLCEDMLLCNYRKCRIKLSGYAWVTACSHIFCDQHGSGEFSRSPAICPACNSTLSGKLDIVRTELSPSEEYKAMVLAGLRPEIVLDISSRALAFWTYQVHQERLYQEYNFSKAEGHLKQMEKIYTQQIQSKDVELTSMKGEVTSMKKVLEEYKKKFSDISEKLMERNRQYQKLQGLYDSLRLRNITIANHEGTLEPSMIAQSGVLGFPLGNNSKFPLDNTPVRNRGDGDGDFQFRPFFAGSPTAPEPSNSFFSFVSPSRELEQQQVSSRAFKVKRI” here?
A: The value was “soluble”.

Q: With “MSLARKKRNPDAEKLAESILNAYQPESVDDMQDALKDVFGPLFEKMLQGELNNHLGYDAHSKEPKEHDNRRNGYGTKTLKTSFGEVAIDVPRDREASFEPELIPKRKRDVSDIEGKVLSMYARGMSQRDIAATVEAIYGFDISHEMISDITDAVLPELEEWQARPLAKCYAFLFVDCMYVTLRENYEAKEYAVYTILGYDLKGNKEILGLWLNQTESKNRWMQVFDELKARGVEDVFFISMDGVSGLEEGAKAIFPSVIVQRCIVHLVRNALRYIPSKDYKEVCRDMKKFYGASSLNAAHAAFGSFQNRWSHYSGAVDVWKRNFAHVEQLFDYGSAIRKIMYTTNAVESVHSSFRKVTKKGAFSNENALLKLLYLRTKELHAKWSGGRIQNWAMVLKQLMINETFSSRMKSMRFTFRNNGRFIQLCVRSKEGHHHHHH” as the sequence, how does the “soluble on expression in E. coli” value read?
A: Its value is “soluble”.

Q: For “MSLPTTSSPLTNDQEFAKPVRNGKIFENPKSFTNWGGRPGLTNIFKLVLRETSHENLPSDKKVLDSTLPVHNITADDFHSESGLFATWLGHATVLVDLEGVKFVTDPVWADRASFTSFAGPKRYRPPPMKLEDLPDLDFAVVSHDHYDHLDADAVKRITNLNPQIKWFVPLGLKKWMKNQGIGADGSNTVTELNWGESSEFVKNGKTITIWCLPAQHSGQRGLSDHNHRLWSGWAVIGENRRFYFPGDTGFCDVEFKKIGEKLGPFDLAAIPIGAYEPRWFMKSHHINPDEAVEVHKLVRARNSIGIHWGTYPMGTTEYYLEPRDKLKELMDAREDLKDTSFVTVDMGEIWEASDR”, which “soluble on expression in E. coli” value is on record?
A: The value was “not soluble”.

Q: With “MAKYEEAFKRQVVQEYLRGAVGTAGLSQKYGIGRSVIRRWINAWQRHGKSGLRKKHEAYSAEFKLTVLQRMWRDELSYQQVSAVFDLREAGGVSRWDRQYHEGGFDALQPRRKGGAPIMSQSKQDPQPAAQPAQDERSREDLLKENECLRAEVAYLKKLDALLRAKQQQAPKKKRKSLEHHHHHH” as the sequence, how does the “soluble on expression in E. coli” value read?
A: The value was “not soluble”.

Q: Which “soluble on expression in E. coli” value does the source give for “MIKESIILKNLEVPTGNICVIKGDKGKLEFLSLGDYGKEVNVKADFLGITRDLEGVPNGKVQPLTKKWVVTMSTQYGCDSGCKFCDVPKVGKGVNVTYNDLKTQLEQALNLHPEIDRTERLNIHYARMGEPSWNNDVLDFTRNLKNIVKPYIGESLIHPVFTTMCPNKNKFLAHRINEWVDIKNNLFQGDAGLQLSINSTNENQRRDMFRGNALTLNEISSIGNDLPMPKGRKYCLNFALADEYEVDAKVLKKLFDPSKFMVKITPLHKTVSSIENDIKTTKGYVSYTPYKDIENDLKKMGFDVLVFVPSYDEDLGRITCGNVILSGSLPKCKYKINLEHHHHHH” here?
A: Its value is “not soluble”.

Q: With “MSLIINNIALHFLSKKEETGEVVLRLGPENAEFAQENAKVTNFVDGLHAIYNAKGSKAYGSFSSMPSEGDSARFVDLMESYLTEQQNFYDFSVQAGNVLKNEIEKYDIEETGYFVICHYEYMGGRYLFVAVIPVSEHYSVDGELNISAAQHLDTNKLQLAARIDLFDYKDNSQGNRYISFVKGRAGRKVSDFFLDFLGCEEGLNSKEQTQTLVQAVEDYVSVNQLDPAEKQKTRKDLLSYCKEQKASSQDVSLQEVGKVIESAGTEQDFYQFCQTQSYPIEESFPHEQAVVNKITKYSGYGNGISLSFERSHFGEDVVYNPHNDSLIIYKVPPNLKEQLMALLDSEKVETDLEHHHHHH” as the sequence, how does the “soluble on expression in E. coli” value read?
A: Its value is “not soluble”.

Q: Which “soluble on expression in E. coli” value does the source give for “MGSIPRVLISADRSSSGKTTISMGLMAALVSRGYKVQPFKVALDYIDPSYHTEITGRFCRNLDGYLMDEHGILDVYTHACETGGGADIAIIEGVRGLFEGFESLSDVGSTAQIAKILKCPVVFVINARSITRSAAALIGGYKNFDPDVEIAGVILNNIGGRRHAQKAKEAIEHYTGVPVLGIIPRDPSMQISMRHLGLMPALEGLEHHHHHH” here?
A: Its value is “not soluble”.
